Source: the supplement of paper PMC12042874
± gives the uncertainty stated by the source.

Assay: amyloid nucleation score (Sup35N fusion, yeast selection) (log enrichment); library NNK3; higher = more nucleation; inactive = no reads after selection
In short: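 The nucleation score is a DiMSum log enrichment of output over input reads, centred on the mode score of non-aggregating sequences. Sequences under 100 input reads were excluded, and reads came from Illumina sequencing of plasmid inserts. Psi-negative yeast expressing Sup35N fused to peptides of 20 random codons were induced with 100 μM copper sulfate for 24 hours and grown 7 days at 30°C on medium lacking adenine and uracil. Random libraries had three technical output replicates.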

Row | Substance | amyloid nucleation score
1 | LNGSCKCLKELFVCYRSWVN | -0.79 ± 0.93
2 | LNIFTYMCVMALMCLEKITS | 1.73 ± 0.11
3 | LNLDCTS | inactive
4 | LNLGILACSGKRLSQSCRLT | inactive
5 | LNLWD | inactive
6 | LNQLRSDITGLMSMTWDDLC | inactive
7 | LNRSSLYFF | inactive
8 | LNSIG | inactive
9 | LNSKFMLASTLLAKW | inactive
10 | LNSKIKLNYYLIF | 0.108 ± 0.19
11 | LNSYQDYSRGVLLKRKALLY | inactive
12 | LNVGCLWRGDGGNRRAQWDV | inactive
13 | LNYFR | inactive
14 | LNYIIRRLIVIILFSQHQYY | inactive
15 | LNYVLS | inactive
16 | LPGFSTCFARCDWWEVQPQG | inactive
17 | LPLFSLSTFFFVCVVCL | 0.464 ± 0.14
18 | LPLPFFQRVNNGKSVLGVHL | inactive
19 | LPLSFSL | inactive
20 | LPNSNTGKKCYGMNHSKENC | inactive
21 | LPPFAWPRMIPWWGRAKVIS | inactive
22 | LPRPFSYSGLR | -0.289 ± 0.59
23 | LPSYLESYYCVRVISGFYLS | inactive
24 | LPYPPAITALPRPCCVNHRV | inactive

Row | Substance | amyloid nucleation score
25 | LQFGVRINSLFYRMVSAVVG | inactive
26 | LQNLNGLIVKSCL | inactive
27 | LQRRYFGSRSLGTFARMFQH | inactive
28 | LQTMTDSFKRTQCLCSYKCT | inactive
29 | LRCGSSSDELCMREWFRVDL | inactive
30 | LREVRTAVSLGQMGRGLQA | inactive
31 | LRFRTDFSSASNK | 1.18 ± 0.081
32 | LRFVSKLWWFISMSSRSHLH | inactive
33 | LRGFKEVTTRLKVRLQLGM | -0.731 ± 1.3
34 | LRGGKFNQYWIGRHGLSSVS | -0.562 ± 1.1
35 | LRGTD | inactive
36 | LRKPYLEY | inactive
37 | LRMSTSGIPYYMSGMSYYNI | inactive
38 | LRNQITQIDDT | inactive
39 | LRPKYTFYCRLD | 0.137 ± 0.28
40 | LRTGCSYNSREGHNTLGRSS | inactive
41 | LRVTKQVLSSMMFTITFGGD | inactive
42 | LRWRHGCIR | inactive
43 | LRYASTSSFLVFQRDTLANE | inactive
44 | LSAFVQDVLNVIQMLTEREF | inactive
45 | LSECLRHGSDDTRFEVVGQD | 1.34 ± 0.097
46 | LSFIISCNYTINNNMWV | 2.91 ± 0.077
47 | LSFSLWNLEYIEISRRNLTL | 1.2 ± 0.097
48 | LSFVP | inactive

Row | Substance | amyloid nucleation score
49 | LSFYMVKGLKNKI | inactive
50 | LSGELCSW | inactive
51 | LSGENQLG | inactive
52 | LSGMMFAGPFLTCSLDCWML | inactive
53 | LSHSRSNL | inactive
54 | LSILTFGSCTNKSH | inactive
55 | LSIVLGEDLMRCTRSDSVWK | inactive
56 | LSKLTSSQAGKG | inactive
57 | LSLAS | inactive
58 | LSLKRHLYLKVDASLTCVRT | inactive
59 | LSLLSFNGIGHFLIVRKRYK | inactive
60 | LSLSSFCF | 1.3 ± 0.17
61 | LSNDF | inactive
62 | LSNHSSLASRSYFTNCN | inactive
63 | LSNMMVVPSTSERFFFRAMG | inactive
64 | LSPCGL | inactive
65 | LSPSVFVNSNRLMTESSRGF | inactive
66 | LSSDGFYFNTEYL | inactive
67 | LSSYMDYGMSKVYVLWRSTW | -0.117 ± 0.28
68 | LSVLTL | inactive
69 | LSVTRNACTEPFRGFLIGLY | inactive
70 | LSYHTCSVMYALRMSALDCR | inactive
71 | LTFGTCFGPYYGVYPNLFIM | inactive
72 | LTGFIGICQLVSYFNEVALQ | inactive

Row | Substance | amyloid nucleation score
73 | LTGVLLMMVLYSRPHLTKAR | inactive
74 | LTHGAVTVFYRFIMLSFILR | inactive
75 | LTLSMKFTWYFYVSIYSGQG | inactive
76 | LTMPWTAYCPFKCFLLRADS | inactive
77 | LTNLCES | inactive
78 | LTRVTMGYIAEIQWNFMSKN | 1.56 ± 0.066
79 | LTSLVLVLLLCSTRNGNGTC | 1.55 ± 0.085
80 | LTWLYDDDVSKFRTLLKFRS | inactive
81 | LTWYREDLYVRSWSCYWDQR | inactive
82 | LVAKRFISYHLIV | inactive
83 | LVAWCDIPNCCANVYCNSVD | 1.85 ± 0.077
84 | LVCFPGTSFAGVCDW | inactive
85 | LVDCFKLCRELNGLILNVAA | 1.07 ± 0.12
86 | LVEISTVERRALIFYRCIDL | -0.481 ± 1.4
87 | LVFLN | inactive
88 | LVFSRCWFSMTVEYISYSVD | inactive
89 | LVLDCMIMGMIIDSWYWPLN | inactive
90 | LVLQLGFKKSPLRVYRSSGN | inactive
91 | LVLSWWYMMFFRFDGV | inactive
92 | LVRCRVVWDLL | inactive
93 | LVSMWMQASILLYCNGSNHW | 1.61 ± 0.11
94 | LVVATRRLMYGHRKVYAWVD | inactive
95 | LVVLLFVFI | inactive
96 | LVVSVCKK | inactive

Row | Substance | amyloid nucleation score
97 | LVVWRIRWRDKGSL | inactive
98 | LVYKLDVNCYDRNLLDSVEK | inactive
99 | LVYTA | inactive
100 | LVYTVNLWNALIFHLD | 0.527 ± 0.22
101 | LWAWIIYGMWKGSFLCHVFS | inactive
102 | LWEDFLMVKSVVMN | inactive
103 | LWGYGL | inactive
104 | LWHSYFSFYLCVTFENRVIN | 2.79 ± 0.052
105 | LWLCSYNATGSFVAKD | -0.246 ± 0.5
106 | LWLGWNRKWQFSWPAAGRFL | inactive
107 | LWNFYSDCNGVPQDESLVEG | inactive
108 | LWTELYVYPLNMTVMVAIF | inactive
109 | LYCTWNSYNSVYAI | 0.66 ± 0.2
110 | LYDISGPM | inactive
111 | LYDSSTALATVSDHFVEWLS | inactive
112 | LYDVGYKGQMVDGGTVCCER | -0.257 ± 0.8
113 | LYESNVRCNRVVTSLFVSSQ | inactive
114 | LYGLRHYILSEHFGGFVLVG | inactive
115 | LYHFANIFSFC | inactive
116 | LYILGQIFR | inactive
117 | LYIPMQLQCCAIMEGYAILF | 1.6 ± 0.078
118 | LYLKYLELEILRPYGAFICH | inactive
119 | LYNGELNLMVRSNAEFMGSG | inactive
120 | LYPFYFYA | inactive

Row | Substance | amyloid nucleation score
121 | LYREFVWMEVCVCRWG | inactive
122 | LYRKWRE | inactive
123 | LYSGVIAHCIVIPIELFSVS | inactive
124 | LYSLVV | inactive
125 | LYTNGIFYWQMGYLKVWQGI | inactive
126 | LYVGEKLVHFLEARMD | inactive
127 | LYVVVASMVGLDASRP | 0.266 ± 0.38
128 | LYWFCCLVIYVGPLVHPVEL | inactive
129 | LYWKEIPGMDYKMAV | inactive
130 | MACRSNGLVGPEHTYVPT | inactive
131 | MAVID | inactive
132 | MCDCL | inactive
133 | MCEGAIQQRILLSMKFCCKW | 0.037 ± 0.87
134 | MCFTLIKLLIQWKREDQIDE | 1.07 ± 0.096
135 | MCRTMLSPLMR | inactive
136 | MCSIIRCRFNMFCLMYVNSV | 0.584 ± 0.13
137 | MCVFNNGVGLPDVGVNLAYN | inactive
138 | MCYLSSSDAGDVIPAWC | inactive
139 | MDFCRRQIMLVVAFSCRLWL | inactive
140 | MEINGALRYMH | inactive
141 | MEYRHCSFNRSRTRTLYRMN | inactive
142 | MEYSRVVAL | -0.421 ± 0.66
143 | MFEYLWEENMSLIYSKVDCG | inactive
144 | MFFAGKTPGHVHVWNSANTR | inactive

Row | Substance | amyloid nucleation score
145 | MFFWMCE | inactive
146 | MFGRYSLLDILPLNMIRGNI | inactive
147 | MFINECVSVYDQF | inactive
148 | MFMRIRSLIE | inactive
149 | MFMVAIGAYEGCSGRRHREV | -0.238 ± 0.64
150 | MFVDSSISGIEIR | inactive
151 | MFVSDKEYRCVTSSVTRVCT | inactive
152 | MFVSLMKQFM | 0.931 ± 0.1
153 | MGISLMFESERVSVYEHGNL | inactive
154 | MGKTMILKLLY | inactive
155 | MGMARWYAKWLGWVLSMYRW | inactive
156 | MGRLKCTVKPVSYEMWKVYA | inactive
157 | MHFLVQSCFTEPRWAACRNV | inactive
158 | MHIFVLNLDLSRA | 2.61 ± 0.069
159 | MHPCSL | inactive
160 | MHSGFNRFSTYCRKVGGSYR | inactive
161 | MICLLSSSCKRRCLMG | inactive
162 | MIDDYRECSYIYF | inactive
